Legend:
[1] = target: porcine gastric mucin coupled to magnetic beads (mucin from porcine stomach, type III, Sigma) (porcine); assay: PGM-MB pull-down, qRT-PCR; after 600 MPa, 5 minutes, 5 C
[2] = target: porcine gastric mucin coupled to magnetic beads (mucin from porcine stomach, type III, Sigma) (porcine); assay: PGM-MB pull-down, qRT-PCR; after 0.25 J/cm^2 UV
[3] = target: porcine gastric mucin coupled to magnetic beads (mucin from porcine stomach, type III, Sigma) (porcine); assay: PGM-MB pull-down, qRT-PCR; after 1 J/cm^2 UV
[4] = target: porcine gastric mucin coupled to magnetic beads (mucin from porcine stomach, type III, Sigma) (porcine); assay: PGM-MB pull-down, qRT-PCR; after 0.5 J/cm^2 UV
[5] = target: porcine gastric mucin coupled to magnetic beads (mucin from porcine stomach, type III, Sigma) (porcine); assay: PGM-MB pull-down, qRT-PCR; after about 60 seconds in the heat block, about 64 C
[6] = target: porcine gastric mucin coupled to magnetic beads (mucin from porcine stomach, type III, Sigma) (porcine); assay: PGM-MB pull-down, qRT-PCR; 0 J/cm^2; printed as 'bound' but the context (84% bound) shows it is the unbound fraction
[7] = target: porcine gastric mucin coupled to magnetic beads (mucin from porcine stomach, type III, Sigma) (porcine); assay: PGM-MB pull-down, qRT-PCR; 0 J/cm^2 in the UV series
[8] = target: porcine gastric mucin coupled to magnetic beads (mucin from porcine stomach, type III, Sigma) (porcine); assay: PGM-MB pull-down, qRT-PCR; untreated virus (0 seconds) in the thermal series
[9] = target: porcine gastric mucin coupled to magnetic beads (mucin from porcine stomach, type III, Sigma) (porcine); assay: PGM-MB pull-down, qRT-PCR; untreated virus in the 300-600 MPa series
[10] = target: porcine gastric mucin coupled to magnetic beads (mucin from porcine stomach, type III, Sigma) (porcine); assay: PGM-MB pull-down, qRT-PCR; untreated control in the initial pressure trials
[11] = target: porcine gastric mucin coupled to magnetic beads (mucin from porcine stomach, type III, Sigma) (porcine); assay: PGM-MB pull-down, qRT-PCR of the bound fraction; after 500 and 600 MPa, 5 minutes, 5 C

## GII.4 norovirus after high pressure treatment (600 MPa, 5 minutes, 5 C)
[1]
  percent bound: 4%

## GI.1 norovirus after UV treatment (254 nm, up to 2 J/cm^2) (from UniProt Q83884 1-530)
[2]
  percent unbound: 40%
[3]
  percent bound: 4%
[4]
  percent bound: 33%
  percent unbound: 67%

## GI.1 norovirus after thermal treatment (80 C heat block, 0-600 seconds) (from UniProt Q83884 1-530)
[5]
  percent bound: 6%

## GI.1 Norwalk strain norovirus (untreated virions from stool stock, patient No. 505A-05) (from UniProt Q83884 1-530)
[6]
  percent unbound: 16%
[7]
  percent bound: 84%
[8]
  percent bound: 68%
  percent unbound: 32%
[9]
  percent bound: 82%
[10]
  percent bound: 71%

## GII.4 norovirus (untreated virions, stock provided by the CDC)
[10]
  percent bound: 69%

## GI.1 norovirus after high pressure treatment (300-600 MPa, 5 minutes, 5 C) (from UniProt Q83884 1-530)
[1]
  percent bound: 0.3%
[11]
  log10 reduction of qRT-PCR detectable norovirus RNA after binding to PGM-MBs: > 4.7

Reference: patent publication US8993229
